Measured values reported in patent US20120282643A1.
One block for each substance: values may come before it.

Molecular target: sulfite reductase tagged with a C-terminal GFP S11 (SEQ ID NO: 16)
Test: cell-based or functional assay

Substance: Split-CFP S1-10 (D19E, D21E, Y66W, H148D, T205S)
- Final Fluorescence (Ident. A2): 4110
- Final Fluorescence (Ident. A3): 1990
- Final Fluorescence (Ident. A6): 5000
- Final Fluorescence (Ident. A8): 2360
- Final Fluorescence (Ident. A9): 4990
- Final Fluorescence (Ident. A10): 4930
- Final Fluorescence (Ident. B1): 4790
- Final Fluorescence (Ident. B2): 3260
- Final Fluorescence (Ident. B3): 2360
- Final Fluorescence (Ident. B4): 1760
- Final Fluorescence (Ident. B5): 2740
- Final Fluorescence (Ident. B6): 2950
- Final Fluorescence (Ident. C2): 2250
- Final Fluorescence (Ident. C3): 2200
- Final Fluorescence (Ident. C5): 2540
- Final Fluorescence (Ident. C9): 1830
- Final Fluorescence (Ident. D5): 2420
- Final Fluorescence (Ident. D9): 1340
- Final Fluorescence (Ident. D12): 3130
- Final Fluorescence (Ident. E1): 4830
- Final Fluorescence (Ident. E2): 1690
- Final Fluorescence (Ident. E3): 1980
- Final Fluorescence (Ident. E5): 1800
- Final Fluorescence (Ident. E6): 2560
- Final Fluorescence (Ident. F1): 4070
- Final Fluorescence (Ident. F2): 1800
- Final Fluorescence (Ident. F3): 2290
- Final Fluorescence (Ident. F4): 1540
- Final Fluorescence (Ident. F5): 2900
- Final Fluorescence (Ident. F7): 2850
- Final Fluorescence (Ident. F9): 2710
- Final Fluorescence (Ident. G1): 4400
- Final Fluorescence (Ident. G3): 2410
- Final Fluorescence (Ident. G6): 2580
- Final Fluorescence (Ident. G7): 2130
- Final Fluorescence (Ident. H1): 4140
- Final Fluorescence (Ident. H4): 2360
- Final Fluorescence (Ident. H7): 3870
- Final Fluorescence (Ident. H8): 2820
- Initial Rate (Ident. A2): 14100
- Initial Rate (Ident. A3): 8810
- Initial Rate (Ident. A6): 18800
- Initial Rate (Ident. A8): 11700
- Initial Rate (Ident. A9): 17700
- Initial Rate (Ident. A10): 16900
- Initial Rate (Ident. B1): 15700
- Initial Rate (Ident. B2): 11900
- Initial Rate (Ident. B3): 8260
- Initial Rate (Ident. B4): 9110
- Initial Rate (Ident. B5): 10300
- Initial Rate (Ident. B6): 10600
- Initial Rate (Ident. C2): 7890
- Initial Rate (Ident. C3): 7950
- Initial Rate (Ident. C5): 9490
- Initial Rate (Ident. C9): 7200
- Initial Rate (Ident. D5): 8850
- Initial Rate (Ident. D9): 7490
- Initial Rate (Ident. D12): 12000
- Initial Rate (Ident. E1): 11700
- Initial Rate (Ident. E2): 7780
- Initial Rate (Ident. E3): 6770
- Initial Rate (Ident. E5): 6370
- Initial Rate (Ident. E6): 9260
- Initial Rate (Ident. F1): 9890
- Initial Rate (Ident. F2): 6690
- Initial Rate (Ident. F3): 7600
- Initial Rate (Ident. F4): 7760
- Initial Rate (Ident. F5): 10200
- Initial Rate (Ident. F7): 10000
- Initial Rate (Ident. F9): 9770
- Initial Rate (Ident. G1): 11000
- Initial Rate (Ident. G3): 10800
- Initial Rate (Ident. G6): 11900
- Initial Rate (Ident. G7): 9680
- Initial Rate (Ident. H1): 10000
- Initial Rate (Ident. H4): 10400
- Initial Rate (Ident. H7): 12900
- Initial Rate (Ident. H8): 10900

Substance: Split-CFP S1-10 (D21N, Y66W, H148D, T205S) (from UniProt P42212 1-214)
- Final Fluorescence (Ident. A12): 990
- Final Fluorescence (Ident. B12): 1790
- Initial Rate (Ident. A12): 3060
- Initial Rate (Ident. B12): 4900

Substance: Split-CFP S1-10 (Y66W, T205S) (from UniProt P42212 1-214)
- Final Fluorescence (Ident. G12): 382
- Final Fluorescence (Ident. H12): 425
- Initial Rate (Ident. G12): 3740
- Initial Rate (Ident. H12): 3600

Substance: Split-CFP plate clone F6 (D19E, D21E, H148D, T205S) (from UniProt P42212 1-214)
- Final Fluorescence (Ident. F6): 2910
- Initial Rate (Ident. F6): 10900

Substance: Split-YFP S1-10 (C70S, T203Y) (from UniProt P42212 1-214)
- Green Fluorescence (488/510) (clone F3): 10.5
- Ratio Yellow/Green Fluorescence (clone F3): 11.4
- Yellow Fluorescence (510/532) (clone F3): 120

Substance: Split-YFP S1-10 (R80K, T203Y) (from UniProt P42212 1-214)
- Green Fluorescence (488/510) (clone H1): 7.41
- Ratio Yellow/Green Fluorescence (clone H1): 18.7
- Yellow Fluorescence (510/532) (clone H1): 138

Substance: Split-YFP S1-10 (S99F, T203Y, T205S) (from UniProt P42212 1-214)
- Green Fluorescence (488/510) (clone G11): 7.47
- Ratio Yellow/Green Fluorescence (clone G11): 18.9
- Yellow Fluorescence (510/532) (clone G11): 141

Substance: Split-YFP S1-10 (T65A, T203Y, T205S) (from UniProt P42212 1-214)
- Green Fluorescence (488/510) (clone C4): 7.17
- Ratio Yellow/Green Fluorescence (clone C4): 10.6
- Yellow Fluorescence (510/532) (clone C4): 76.2

Substance: Split-YFP S1-10 (T65G, P192H, T203Y, T205S) (from UniProt P42212 1-214)
- Green Fluorescence (488/510) (clone D3): 7.15
- Ratio Yellow/Green Fluorescence (clone D3): 17.9
- Yellow Fluorescence (510/532) (clone D3): 128

Substance: Split-YFP S1-10 (T65G, S99F, T203Y, T205S) (from UniProt P42212 1-214)
- Green Fluorescence (488/510) (clone E11): 4.51
- Ratio Yellow/Green Fluorescence (clone E11): 22.5
- Yellow Fluorescence (510/532) (clone E11): 101

Substance: Split-YFP S1-10 (T65G, T203Y) (from UniProt P42212 1-214)
- Green Fluorescence (488/510) (clone A9): 4.5
- Green Fluorescence (488/510) (clone B2): 5.85
- Green Fluorescence (488/510) (clone E7): 6.91
- Ratio Yellow/Green Fluorescence (clone A9): 24.3
- Ratio Yellow/Green Fluorescence (clone B2): 19.5
- Ratio Yellow/Green Fluorescence (clone E7): 17
- Yellow Fluorescence (510/532) (clone A9): 109
- Yellow Fluorescence (510/532) (clone B2): 114
- Yellow Fluorescence (510/532) (clone E7): 117

More lines, now with the values ahead:

- Final Fluorescence (Ident. C4): 2270
- Final Fluorescence (Ident. G5): 1360
- Initial Rate (Ident. C4): 7790
- Initial Rate (Ident. G5): 6070
Substance: Split-CFP S1-10 (D19E, D21E, Y66W, H148D, T205S, S208L)

- Final Fluorescence (Ident. A7): 2550
- Final Fluorescence (Ident. C6): 1120
- Final Fluorescence (Ident. C7): 1730
- Final Fluorescence (Ident. C8): 1010
- Final Fluorescence (Ident. C10): 1720
- Final Fluorescence (Ident. D7): 744
- Final Fluorescence (Ident. D10): 1200
- Final Fluorescence (Ident. E8): 1140
- Final Fluorescence (Ident. G2): 1910
- Final Fluorescence (Ident. G8): 1420
- Final Fluorescence (Ident. G9): 1700
- Final Fluorescence (Ident. H3): 2130
- Final Fluorescence (Ident. H5): 2000
- Final Fluorescence (Ident. H9): 1340
- Initial Rate (Ident. A7): 8100
- Initial Rate (Ident. C6): 3590
- Initial Rate (Ident. C7): 6280
- Initial Rate (Ident. C8): 4550
- Initial Rate (Ident. C10): 6180
- Initial Rate (Ident. D7): 3120
- Initial Rate (Ident. D10): 4290
- Initial Rate (Ident. E8): 5330
- Initial Rate (Ident. G2): 3790
- Initial Rate (Ident. G8): 9440
- Initial Rate (Ident. G9): 7820
- Initial Rate (Ident. H3): 6870
- Initial Rate (Ident. H5): 5750
- Initial Rate (Ident. H9): 7800
Substance: Split-CFP S1-10 (D19E, D21N, Y66W, H148D, T205S)

- Final Fluorescence (Ident. B9): 703
- Final Fluorescence (Ident. C12): 1740
- Initial Rate (Ident. B9): 2230
- Initial Rate (Ident. C12): 5120
Substance: Split-CFP S1-10 (D19E, D21N, Y66W, S99T, H148D, T205S)

- Final Fluorescence (Ident. A5): 2860
- Initial Rate (Ident. A5): 9770
Substance: Split-CFP S1-10 (D19E, Y66W, H148D, T205S) (from UniProt P42212 1-214)

- Final Fluorescence (Ident. G4): 5100
- Initial Rate (Ident. G4): 13000
Substance: Split-CFP S1-10 (D21E, Y66W, H148D, T205S) (from UniProt P42212 1-214)

- Final Fluorescence (Ident. F12): 868
- Initial Rate (Ident. F12): 1980
Substance: Split-CFP S1-10 (D21N, Y66W, T205S) (from UniProt P42212 1-214)

- Final Fluorescence (Ident. B8): 1640
- Final Fluorescence (Ident. B10): 3340
- Final Fluorescence (Ident. D2): 3360
- Initial Rate (Ident. B8): 8930
- Initial Rate (Ident. B10): 11500
- Initial Rate (Ident. D2): 11500
Substance: Split-CFP S1-10 (V16I, D19E, D21E, Y66W, H148D, T205S)

- Final Fluorescence (Ident. E12): 1070
- Initial Rate (Ident. E12): 2040
Substance: Split-CFP S1-10 (V16I, D21E, Y66W, T205S) (from UniProt P42212 1-214)

- Final Fluorescence (Ident. D1): 8860
- Final Fluorescence (Ident. D4): 3740
- Final Fluorescence (Ident. D6): 4100
- Final Fluorescence (Ident. D8): 3750
- Final Fluorescence (Ident. E4): 3280
- Final Fluorescence (Ident. F8): 1310
- Final Fluorescence (Ident. H2): 6570
- Initial Rate (Ident. D1): 14500
- Initial Rate (Ident. D4): 7990
- Initial Rate (Ident. D6): 10000
- Initial Rate (Ident. D8): 8440
- Initial Rate (Ident. E4): 7280
- Initial Rate (Ident. F8): 3820
- Initial Rate (Ident. H2): 9060
Substance: Split-CFP S1-10 (Y66W, H148D, T205S) (from UniProt P42212 1-214)

- Green Fluorescence (488/510) (clone C5): 5.07
- Ratio Yellow/Green Fluorescence (clone C5): 20.9
- Yellow Fluorescence (510/532) (clone C5): 106
Substance: Split-YFP S1-10 (T9N, T65L, T203Y, T205S) (from UniProt P42212 1-214)

- Green Fluorescence (488/510) (clone A7): 2.77
- Ratio Yellow/Green Fluorescence (clone A7): 28.5
- Yellow Fluorescence (510/532) (clone A7): 79.1
Substance: Split-YFP S1-10 (T65L, V176I, T203Y, T205S) (from UniProt P42212 1-214)
